Measurements from publication PMC5750218, “Protein-inspired antibiotics active against vancomycin- and daptomycin-resistant bacteria” (Nature Communications, 2018).
≈ marks a conversion by molar mass, not a printed value. Read-outs that look alike come from different tables or passages of the source.

What was measured:
[1] = system: Methicillin-sensitive S. aureus ATCC 29213; test: microbe, parasite or virus in culture; assay type: cell-based, Staphylococcus aureus; details: for MIC: Staphylococcus aureus, ATCC 29213 / MSSA
Protocol: Antimicrobial activity of compounds was tested against a number of bacterial strains by broth microdilution (BMD) assay with MIC determination, including S. aureus (MSSA ATCC® 29213™, MRSA ATCC® 43300™, VISA NARSA NRS1, VISA NARSA NRS4), Streptococcus pneumoniae (MDR ATCC® 700677™) and Enterococcus faecium (MDR VanA ATCC® 51559™). ATCC strains were sourced from the American Type Culture Collection and NRS strains from NARSA (Network on Antimicrobial Resistance in S. aureus) via BEI Resources (www.beiresources.org). All compounds were prepared to 160 µg mL^−1 solution in water from a stock solution of 1 mM concentration.
[…] […] Standards ranged from 64 to 0.03 µg mL^−1 and compounds from 8 to 0.003 µg mL^−1 with final assay volumes of 100 µL per well. Gram-positive bacteria were cultured in Mueller Hinton broth (MHB) (Bactolaboratories, Cat. no. 211443) at 37 °C overnight. A sample of each culture was then diluted 40-fold in fresh MHB and incubated at 37 °C for 2–3 h. The resultant mid-log phase cultures were added to the compound-containing 96-well plates to give a final cell density of 5 × 10^5 colony forming unit (CFU) mL^−1. All the plates were covered and incubated at 37 °C for 24 h. MICs were the lowest concentration showing no visible growth.

[2] = Haemolysis assay; assay type: cell-based; details: human, whole blood
Protocol: Haemolytic activity was measured as previously described with slight modifications, [45]. Fresh human venal blood was collected from healthy volunteers and pretreated with the anticoagulant sodium citrate. Serial twofold dilutions of each antibiotic, dissolved in 0.9% NaCl solution, were added to fresh human whole blood (50% final, vol:vol) to the final volume of 80 μL and incubated at 37 °C for 3 h on a horizontal shaker at 200 rpm. For negative and positive controls, human whole blood in 0.9% NaCl solution (A blank) and in sdH2O (A water) were used, respectively. After incubation, both test and A blank were mixed with 1 mL 0.9% NaCl solution, or sdH2O for the complete […] A water. After centrifugation of samples at 2500 rpm (700 × g) for 5 min, the release of haemoglobin was monitored by measuring the absorbance (A sample) of the supernatant at 540 nm using BMG Labtech PolarStar Omega multimode reader. The percentage of haemolysis was calculated according to the equation: %haemolysis=Asample-Ablank∕Awater-Ablank×100

[3] = system: Bacillus subtilis ATCC 6633; test: microbe, parasite or virus in culture; assay type: cell-based; details: ATCC 6633, 48 h
[4] = In vivo pharmacokinetics in mice; details: mouse; for level at 5 min / level at […] / level at 0.5 h / level at 1 h / level at 2 h / level at 4 h / level at 8 h / level at 24 h: male, CD1, plasma; for level at […]: 0.250 h; for level at 0.5 h: 0.500 h; for bioavailability / AUC(0-inf) / AUC(0-t) / C0 / clearance / half-life / MRT inf / MRT last / Vd / Cmax / Tmax: plasma; for bioavailability: subcutaneous, SC 10 mg kg-1 vs IV 2 mg kg-1; for MRT inf: read-out: MRT0-inf; for MRT last: read-out: MRT0-last; for Vd: read-out: Vdss
[5] = system: S. aureus ATCC 43300 MRSA; test: microbe, parasite or virus in culture; assay type: cell-based, Staphylococcus aureus
Protocol: The compounds, along with standard antibiotics were serially diluted twofold across the wells of 96-well non-binding surface (NBS) polystyrene plates (Corning 3641). […] Standards ranged from 64 to 0.03 µg mL^−1 and compounds from 8 to 0.003 µg mL^−1 with final assay volumes of 100 µL per well. Gram-positive bacteria were cultured in Mueller Hinton broth (MHB) (Bactolaboratories, Cat. no. 211443) at 37 °C overnight. A sample of each culture was then diluted 40-fold in fresh MHB and incubated at 37 °C for 2–3 h. The resultant mid-log phase cultures were added to the compound-containing 96-well plates to give a final cell density of 5 × 10^5 colony forming unit (CFU) mL^−1. All the plates were covered and incubated at 37 °C for 24 h. MICs were the lowest concentration showing no visible growth.

[6] = 2 mg/kg IV, n=3, read-out: Plasma concentration, Mean IV
[7] = 2 mg/kg IV, read-out: Plasma concentration, Mean IV
[8] = 10 mg/kg SC, n=3, read-out: Plasma concentration, Mean SC
[9] = 10 mg/kg SC, read-out: Plasma concentration, Mean SC

CN[C@H](CC(C)C)C(=O)N[C@H]1C(=O)N[C@@H](CC(N)=O)C(=O)N[C@H]2C(=O)N[C@H]3C(=O)N[C@H](C(=O)N[C@H](C(=O)O)c4cc(O)cc(O)c4-c4cc3ccc4O)[C@H](O[C@H]3C[C@](C)(N)[C@@H](O)[C@H](C)O3)c3ccc(c(Cl)c3)Oc3cc2cc(c3O[C@@H]2O[C@H](CO)[C@@H](O)[C@H](O)[C@H]2O[C@H]2C[C@](C)(NCc3ccc(-c4ccc(Cl)cc4)cc3)[C@@H](O)[C@H](C)O2)Oc2ccc(cc2Cl)[C@H]1O [Compound 5, Oritavancin, reference compound]
MIC ([1]; read-out: MIC MSSA): ≤ 0.016 µg/mL
MIC ([1]; read-out: MIC S. aureus ATCC29213 MSSA, NBS): ≤ 0.016 µg/mL
MIC ([1]; read-out: MIC S. aureus ATCC29213 MSSA, PP): 1 µg/mL (≈ 0.558 µM)
MIC ([1]; read-out: MIC S. aureus ATCC29213 MSSA, PS): 1 µg/mL (≈ 0.558 µM)
MIC ([1]; read-out: MIC S. aureus ATCC29213 MSSA, PS+P-80): 0.031 µg/mL (≈ 0.0173 µM)

CCCCCCCCCCC(=O)N[C@@H](CCCCN)C(=O)N[C@@H](CCCCN)C(=O)N[C@@H](CCCCNC(=O)[C@H]1NC(=O)[C@H]2NC(=O)[C@H](NC(=O)[C@@H]3NC(=O)[C@H](CC(N)=O)NC(=O)[C@H](NC(=O)[C@@H](CC(C)C)NC)[C@H](O)c4ccc(c(Cl)c4)Oc4cc3cc(c4O[C@@H]3O[C@H](CO)[C@@H](O)[C@H](O)[C@H]3O[C@H]3C[C@](C)(N)[C@H](O)[C@H](C)O3)Oc3ccc(cc3Cl)[C@H]2O)c2ccc(O)c(c2)-c2c(O)cc(O)cc21)C(=O)O [Compound 19, nC10CO-KK-K(Vancomycin)-OH]
hemolysis at 3 h ([2]; 100 µg mL-1): 0.7%
hemolysis at 3 h ([2]; 1600 µg mL-1): 0.5%
Ac2Kaa concentration required to neutralise MIC activity [3]: 100 µg/mL
MIC [3]: ≤ 0.004 µg/mL
level at 5 min [4, 6]: 9370 ng/mL
level at […] [4, 7]: 6970 ng/mL
level at 0.5 h [4, 7]: 6060 ng/mL
level at 1 h [4, 7]: 4860 ng/mL
level at 2 h [4, 7]: 2640 ng/mL
level at 4 h [4, 7]: 1450 ng/mL
level at 8 h [4, 7]: 137 ng/mL
level at 24 h [4, 7]: 5.7 ng/mL
level at […] [4, 8]: 2650 ng/mL
level at 0.5 h [4, 9]: 5130 ng/mL
level at 1 h [4, 9]: 8790 ng/mL
level at 2 h [4, 9]: 9160 ng/mL
level at 4 h [4, 9]: 7370 ng/mL
level at 8 h [4, 9]: 2380 ng/mL
level at 24 h [4, 9]: 124 ng/mL
AUC0-inf/AUC0-last ([4]; IV 2 mg kg-1): 100%
Tlast ([4]; IV 2 mg kg-1): 18.7 h
AUC0-inf/AUC0-last ([4]; SC 10 mg kg-1): 101%
Tlast ([4]; SC 10 mg kg-1): 24 h
bioavailability [4]: 71.8%
AUC(0-inf) ([4]; IV 2 mg kg-1): 16900 ng·h/mL
AUC(0-t) ([4]; IV 2 mg kg-1): 16800 ng·h/mL
C0 ([4]; IV 2 mg kg-1): 10900 ng/mL
clearance ([4]; IV 2 mg kg-1): 1.98 mL/min/kg
half-life ([4]; IV 2 mg kg-1): 2.22 h
MRT inf ([4]; IV 2 mg kg-1): 2.26 h
MRT last ([4]; IV 2 mg kg-1): 2.2 h
Vd ([4]; IV 2 mg kg-1): 0.267 L/kg
AUC(0-inf) ([4]; SC 10 mg kg-1): 60500 ng·h/mL
AUC(0-t) ([4]; SC 10 mg kg-1): 59900 ng·h/mL
Cmax ([4]; SC 10 mg kg-1): 9970 ng/mL
Tmax ([4]; SC 10 mg kg-1): 1.67 h
half-life ([4]; SC 10 mg kg-1): 3.49 h
MRT inf ([4]; SC 10 mg kg-1): 5.59 h
MRT last ([4]; SC 10 mg kg-1): 5.32 h
MIC S. aureus ATCC29213 MSSA, NBS ([1]; ATCC 29213): ≤ 0.016 µg/mL
MIC S. aureus ATCC29213 MSSA, PP ([1]; ATCC 29213): 0.125 to 0.25 µg/mL
MIC S. aureus ATCC29213 MSSA, PS ([1]; ATCC 29213): 0.03 to 0.06 µg/mL
MIC S. aureus ATCC29213 MSSA, PS+P-80 ([1]; ATCC 29213): 0.031 µg/mL (≈ 0.0155 µM)

CCCCCCCCCCC(=O)N[C@@H](CCCCN)C(=O)N[C@@H](CCCCN)C(=O)N[C@@H](CCCCNC(=O)[C@H]1NC(=O)[C@H]2NC(=O)[C@H](NC(=O)[C@@H]3NC(=O)[C@H](CC(N)=O)NC(=O)[C@H](NC(=O)[C@@H](CC(C)C)NC)[C@H](O)c4ccc(c(Cl)c4)Oc4cc3cc(c4O[C@@H]3O[C@H](CO)[C@@H](O)[C@H](O)[C@H]3O[C@H]3C[C@](C)(N)[C@H](O)[C@H](C)O3)Oc3ccc(cc3Cl)[C@H]2O)c2ccc(O)c(c2)-c2c(O)cc(O)cc21)C(N)=O [Compound 21, nC10CO-KK-K(Vancomycin)-NH2]
level at 5 min [4, 6]: 10000 ng/mL
level at […] [4, 7]: 5680 ng/mL
level at 0.5 h [4, 7]: 4330 ng/mL
level at 1 h [4, 7]: 2470 ng/mL
level at 2 h [4, 7]: 1940 ng/mL
level at 4 h [4, 7]: 758 ng/mL
level at 8 h [4, 7]: 49.4 ng/mL
level at […] [4, 8]: 944 ng/mL
level at 0.5 h [4, 9]: 1440 ng/mL
level at 1 h [4, 9]: 2950 ng/mL
level at 2 h [4, 9]: 3140 ng/mL
level at 4 h [4, 9]: 2320 ng/mL
level at 8 h [4, 9]: 1370 ng/mL
level at 24 h [4, 9]: 45 ng/mL
AUC0-inf/AUC0-last ([4]; IV 2 mg kg-1): 101%
Tlast ([4]; IV 2 mg kg-1): 8 h
AUC0-inf/AUC0-last ([4]; SC 10 mg kg-1): 101%
Tlast ([4]; SC 10 mg kg-1): 24 h
bioavailability [4]: 43%
AUC(0-inf) ([4]; IV 2 mg kg-1): 10900 ng·h/mL
AUC(0-t) ([4]; IV 2 mg kg-1): 10800 ng·h/mL
C0 ([4]; IV 2 mg kg-1): 14200 ng/mL
clearance ([4]; IV 2 mg kg-1): 3.13 mL/min/kg
half-life ([4]; IV 2 mg kg-1): 1.12 h
MRT inf ([4]; IV 2 mg kg-1): 1.7 h
MRT last ([4]; IV 2 mg kg-1): 1.6 h
Vd ([4]; IV 2 mg kg-1): 0.31 L/kg
AUC(0-inf) ([4]; SC 10 mg kg-1): 23400 ng·h/mL
AUC(0-t) ([4]; SC 10 mg kg-1): 23100 ng·h/mL
Cmax ([4]; SC 10 mg kg-1): 3560 ng/mL
Tmax ([4]; SC 10 mg kg-1): 2.33 h
half-life ([4]; SC 10 mg kg-1): 3.4 h
MRT inf ([4]; SC 10 mg kg-1): 6.3 h
MRT last ([4]; SC 10 mg kg-1): 6 h
MIC S. aureus ATCC 43300 MRSA ([5]; 1% Survanta): 0.007 µg/mL (≈ 0.0035 µM)
MIC S. aureus ATCC 43300 MRSA ([5]; 5% Survanta): 0.03 µg/mL (≈ 0.015 µM)
MIC S. aureus ATCC 43300 MRSA ([5]; no added Survanta): 0.015 µg/mL (≈ 0.0075 µM)
